{"source": "paper PMC5342420", "about": "“CD109 is identified as a potential nasopharyngeal carcinoma biomarker using aptamer selected by cell-SELEX”", "key": {"[1]": {"target": "T1, CD109 (endogenous, 5-8F cells) (UniProt Q6YHK3)", "T1 sequence": "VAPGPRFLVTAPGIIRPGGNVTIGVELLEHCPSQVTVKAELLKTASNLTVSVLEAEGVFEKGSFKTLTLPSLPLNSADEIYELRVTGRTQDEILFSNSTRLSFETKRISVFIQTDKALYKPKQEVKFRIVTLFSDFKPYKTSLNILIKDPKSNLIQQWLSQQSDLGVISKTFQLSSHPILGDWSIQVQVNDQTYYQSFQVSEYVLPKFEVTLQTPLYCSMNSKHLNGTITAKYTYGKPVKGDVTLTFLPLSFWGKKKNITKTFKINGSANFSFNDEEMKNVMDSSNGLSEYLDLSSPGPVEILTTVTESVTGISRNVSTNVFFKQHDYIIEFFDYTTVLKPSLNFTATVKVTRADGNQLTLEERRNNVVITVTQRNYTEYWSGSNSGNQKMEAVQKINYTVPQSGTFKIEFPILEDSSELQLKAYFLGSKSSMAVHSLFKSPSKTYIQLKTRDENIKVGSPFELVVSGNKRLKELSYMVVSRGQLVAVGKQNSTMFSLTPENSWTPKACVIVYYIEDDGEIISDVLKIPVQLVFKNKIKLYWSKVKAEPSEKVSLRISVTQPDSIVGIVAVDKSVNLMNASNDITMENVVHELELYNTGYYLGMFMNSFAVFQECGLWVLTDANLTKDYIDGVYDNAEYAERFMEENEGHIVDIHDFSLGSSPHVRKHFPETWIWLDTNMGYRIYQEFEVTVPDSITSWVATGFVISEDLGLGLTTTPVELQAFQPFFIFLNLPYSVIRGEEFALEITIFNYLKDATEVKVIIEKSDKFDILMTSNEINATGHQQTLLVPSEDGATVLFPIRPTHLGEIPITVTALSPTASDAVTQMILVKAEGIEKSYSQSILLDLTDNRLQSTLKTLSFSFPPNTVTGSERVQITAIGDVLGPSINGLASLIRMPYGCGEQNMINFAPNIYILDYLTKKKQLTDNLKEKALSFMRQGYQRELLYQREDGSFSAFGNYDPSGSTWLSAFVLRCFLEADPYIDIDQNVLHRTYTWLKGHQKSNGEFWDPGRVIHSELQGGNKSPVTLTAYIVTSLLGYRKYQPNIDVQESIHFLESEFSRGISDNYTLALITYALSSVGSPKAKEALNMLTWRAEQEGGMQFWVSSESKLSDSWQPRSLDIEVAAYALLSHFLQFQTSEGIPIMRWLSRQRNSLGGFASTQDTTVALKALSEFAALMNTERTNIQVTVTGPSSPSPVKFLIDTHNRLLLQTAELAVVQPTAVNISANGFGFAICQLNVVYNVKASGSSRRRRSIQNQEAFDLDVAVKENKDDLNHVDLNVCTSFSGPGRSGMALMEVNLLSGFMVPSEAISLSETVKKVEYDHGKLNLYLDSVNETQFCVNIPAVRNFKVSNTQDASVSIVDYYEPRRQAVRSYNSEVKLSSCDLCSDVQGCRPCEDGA", "assay": "flow cytometry", "conditions": "whole 5-8F cells, on ice, 10% FBS, library background subtracted, Cells: D-PBS (Ca/Mg-free) + 4.5 g/L glucose, 5 mM MgCl2, 0.1 mg/mL yeast tRNA, 1 mg/mL BSA, on ice 0.5 h, EMSA: binding buffer, 4 C, 5% native PAGE in …"}, "CD109 (recombinant)": {"target": "CD109 (recombinant) (Homo sapiens, UniProt Q6YHK3 22-1420)", "assay": "EMSA; 4 C; Cells: D-PBS (Ca/Mg-free) + 4.5 g/L glucose, 5 mM MgCl2, 0.1 mg/mL yeast tRNA, 1 mg/mL BSA, 10% FBS, on ice 0.5 h; EMSA: binding buffer, 4 C, 5% native PAGE in", "conditions": "protein: commercial; label: FAM"}}, "data": [{"molecule": "ATCCAGAGTGACGCAGCATCTGAGAATAGTGGTTTGCTGTATGGTGGGCGTTGAAAGAGGGGTGGACACGGTGGCTTAGT [S3 (FITC-labeled)]", "values": [{"measurement": "Kd", "setting": "[1]", "value": 11.9, "unit": "nM"}]}, {"molecule": "S3 (FAM-labeled) (ssDNA) DNA: ATCCAGAGTGACGCAGCATCTGAGAATAGTGGTTTGCTGTATGGTGGGCGTTGAAAGAGGGGTGGACACGGTGGCTTAGT", "values": [{"measurement": "binding result", "setting": "CD109 (recombinant)", "value": "binds"}]}]}
